Data taken from publication PMC4932716.

Tests used:
[1] = molecular target: native ArtinM (jArtinM) (Artocarpus heterophyllus); assay: SDS-PAGE of undenatured sample; undenatured protein (no thermal dissociation) loaded on 12.5 % SDS-PAGE, 3 μg per lane, Coomassie blue G-250
[2] = molecular target: recombinant ArtinM (rArtinM) (Artocarpus heterophyllus); assay: AUC; sedimentation velocity at 50,000 rpm, 20 °C, c(S) fit in SEDFIT; confirmed by sedimentation equilibrium

Row | Substance | stoichiometry N [1] | stoichiometry N [2]
1 | native ArtinM (jArtinM) (natural protein) | 4 | 
2 | recombinant ArtinM (rArtinM) (natural protein) |  | 3
